T1: FOXC2-DBD (human, UniProt Q99958 72-171)
T1 sequence: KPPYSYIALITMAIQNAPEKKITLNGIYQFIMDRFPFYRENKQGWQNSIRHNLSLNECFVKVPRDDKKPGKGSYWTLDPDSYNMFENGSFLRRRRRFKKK

T2: FOXA2-DBD (human, UniProt Q9Y261-2 163-264)
T2 sequence: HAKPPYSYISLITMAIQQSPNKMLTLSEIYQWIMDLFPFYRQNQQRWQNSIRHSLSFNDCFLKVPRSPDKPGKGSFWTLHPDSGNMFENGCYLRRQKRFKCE

T3: FOXM1-DBD (human, UniProt Q08050 222-360)
T3 sequence: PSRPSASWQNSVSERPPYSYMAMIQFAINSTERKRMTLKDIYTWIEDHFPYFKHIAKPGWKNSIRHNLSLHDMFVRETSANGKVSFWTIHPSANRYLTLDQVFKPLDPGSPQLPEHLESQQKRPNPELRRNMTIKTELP


Experiments:
[1] = molecular target: T1, FOXC2-DBD; assay: crystal structure
[2] = molecular target: T2, FOXA2-DBD; assay: ITC
[3] = molecular target: T1, FOXC2-DBD; assay: ITC
[4] = molecular target: T3, FOXM1-DBD; assay: ITC
[5] = molecular target: T1, FOXC2-DBD; assay: EMSA

Binder | binding result [1] | Kd [2] [nM] | Kd [3] [nM] | Kd [4] [nM] | binding result [5]
DBE2 (GTAAACA) (dsDNA) DNA 1: CAAAATGTAAACAAGA DNA 2: TCTTGTTTACATTTTG | binds |  |  |  | 
GTACACA site (ITC) (dsDNA) DNA 1: TGCAAAATGTACACAAGACT DNA 2: AGTCTTGTGTACATTTTGCA |  | 990 | 2220 | 8300 | 
DNA3 (GTACACA, palindromic) (dsDNA) DNA 1: ATTTGTGTACACAAAT DNA 2: ATTTGTGTACACAAAT |  |  |  |  | binds
ACAAATA site (DNA4, ITC) (dsDNA) DNA 1: TGCAAAATACAAATAAGACT DNA 2: AGTCTTATTTGTATTTTGCA |  | 7540 |  | 2070 | 

From PMC6468292
